Columns and labels:
Assay in all cases: method not stated in Example 7
[1] = target: C345C subunit of complement protein C5
IL-17A = target: IL-17A
β-NGF = target: β-NGF
Sequence of β-NGF (P01138 122-241): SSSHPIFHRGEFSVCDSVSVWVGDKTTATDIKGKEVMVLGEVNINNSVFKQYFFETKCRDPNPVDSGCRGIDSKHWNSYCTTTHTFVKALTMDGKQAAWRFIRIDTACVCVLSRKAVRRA

Sequence of IL-17A (Q16552 24-155): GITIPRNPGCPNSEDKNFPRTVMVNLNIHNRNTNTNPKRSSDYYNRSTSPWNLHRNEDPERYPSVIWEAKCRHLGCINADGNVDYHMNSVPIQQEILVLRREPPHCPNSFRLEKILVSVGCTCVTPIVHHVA
Sequence of C345C subunit of complement protein C5 (P01031 1532-1676): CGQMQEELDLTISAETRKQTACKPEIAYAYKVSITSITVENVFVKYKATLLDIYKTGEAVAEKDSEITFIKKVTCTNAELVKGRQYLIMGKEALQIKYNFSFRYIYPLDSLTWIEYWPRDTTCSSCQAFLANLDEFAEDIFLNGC

B1: APE1775 (antibody, human IgG1, kappa, V domains shown)
VH: EVQLVESGGGLVQPGGSLILSCAASGFTFSSYAMTWVRQAPGKGLEWVCAISGSGSTYYADSVKGRFTCSRDNSKNTLYLQMNSLRAEDTAVYYCARRGLRYNYFDYWGAGTTVTVSS
VL: DVVLTQSPLSLAVLLGQPASISCRASQSVSSSYLAWYQQRPGQSPRLLIYGASSRATGVPDRFSGSGSGTDFTLKISRVEAEDVGVYFCQQYGRSLEYTFGGGTKLEIKR
B1 showed a Kd [1] of 5 nM.

B2: APE1662 (antibody, human IgG1, kappa, V domains shown)
VH: EVQLVESGGGLVQPGGSLILSCAASGFTFSNHWMNWVRQAPGKGLEWVCAAINEDGSEKYYVGSVKVRFTCSRDNSKNTLYLQMNSLRAEDTAVYYCARDYYDILTDYYIHYWYFDLWGAGTTVTVSS
VL: DVVLTQSPLSLAVLLGQPASISCRASQSVSSSYLAWYQQRPGQSPRLLIYGASSRATGVPDRFSGSGSGTDFTLKISRVEAEDVGVYFCQQYGSSPLTFGGGTKLEIKR
B2 gave a Kd (IL-17A) of 0.21 nM and a fold improvement in antigen binding affinity (against the parental antibody, APE508 in Table 3) (IL-17A) of 1.6 fold.

B3: APE1661 (antibody, human IgG1, kappa, V domains shown)
VH: EVQLVESGGGLVQPGGSLILSCAASGFTFTTYNMNWVRQAPGKGLEWVCVISTGGSNTYYADSVKGRFTCSRDNSKNTLYLQMNSLRAEDTAVYYCARDGGYSSSTLYAMDAWGAGTTVTVSS
VL: DVVLTQSPLSLAVLLGQPASISCRASKNIYNALAWYQQRPGQSPRLLIYNTDRLHTGVPDRFSGSGSGTDFTLKISRVEAEDVGVYFCQHYFDYPRTFGGGTKLEIKR
Work on B3 yielded a Kd (β-NGF) of 12 nM and a fold loss in β-NGF binding affinity (against the parental antibody, APE579 in Table 3) (β-NGF) of 2 fold.

Source: patent US20140079691A1
